Changes are numbered by the printed parent chain. Names and notes keep the numbering of the source.
What was measured:
[1] = biological target: T1, CD40-Fc (Ancell # 504-820) (human, UniProt P25942 21-193); test: binding ELISA, CD40-Fc coated, one fixed concentration, anti-human IgG Fc-HRP
T1 construct: Bought reagent; also called human CD40; not shown: Fc part of the bought fusion
Procedure: (§1) In short, 96-well flat bottom plate high binding plates (Greiner #655074) were coated with CD40-Fc (Ancell # 504-820) by incubating overnight at 4° C. The plates were washed (Wash buffer: PBS+0.05% Tween 20 (PBST) Medicago #09-9410-100) and then blocked in PBST+3% BSA (Merck, #1.12018.0100). The plates were washed again and samples or control (serial dilutions 1/2, starting at 0.2 ug/ml) were added to the wells.
(§2) The samples were incubated for 1 h at room temperature and then washed. Detection antibody, goat-anti-human IgG Fcγ-HRP (Jackson, #109-035-098) was added and the plates were subsequently developed using SuperSignal Pico Chemiluminescent substrate (Thermo #37069) and detected with Envision reader (Perkin Elmer). In FIG. 6A the binding of bispecific molecules at different concentrations to CD40 coated onto an ELISA plate is shown. In FIG. 6B, the binding of bispecific molecules at one fixed concentration (100 ng/ml) to CD40 coated onto an ELISA plate is shown. The bispecific molecules bind specifically to CD40.

[2] = biological target: T2, human CTLA4-Fc (Fitzgerald #30R-CD152) (human, UniProt P16410 38-152); test: binding ELISA, CTLA4-Fc coated, sample titrated, anti-human IgG Fc-HRP, chemiluminescence, data normalised to % [both panels]
T2 construct: Bought reagent; also called biotinylated-CTLA4; human CTLA-4 (Fitzgerald); not shown: Fc part of the bought fusion
T2 sequence (P16410 38-152 limits assumed): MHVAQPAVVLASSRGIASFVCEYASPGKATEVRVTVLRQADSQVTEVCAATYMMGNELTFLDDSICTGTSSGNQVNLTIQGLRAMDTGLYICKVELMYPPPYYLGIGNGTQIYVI
Procedure: (§3) The plates were washed (Wash buffer: PBS+0.05% Tween 20 (PBST) Medicago #09-9410-100) and then blocked in PBST+3% BSA (Merck, #1.12018.0100). The plates were washed again and sample or controls (serially diluted 1/3 from 50 000-0001 nM) were added to the wells. The samples were incubated for 1 h at room temperature and then washed. Detection antibody, goat-anti-human IgG Fγy-HRP (Jackson, #109-035-098) was added and the plates were subsequently developed using SuperSignal Pico Chemiluminescent substrate (Thermo #37069) and detected with an Envision reader (Perkin Elmer).

[3] = biological target: T3, CD28-Fc (provided by Simon Davis, Oxford University) (human, UniProt P10747 19-152, limits assumed); test: binding ELISA, coated CD28-Fc
T3 construct: Gift reagent; not shown: Fc part
Procedure: as §3

[4] = biological target: T2, human CTLA4-Fc (Fitzgerald #30R-CD152); test: binding ELISA, CTLA4-Fc coated, sample titrated, anti-human IgG Fc-HRP, chemiluminescence, data normalised to % [upper panel]
Procedure: as §3

[5] = biological target: T2, human CTLA4-Fc (Fitzgerald #30R-CD152); test: binding ELISA, CTLA4-Fc coated, sample titrated, anti-human IgG Fc-HRP, chemiluminescence, data normalised to % [lower panel]
Procedure: as §3

[6] = biological target: T1, CD40-Fc (Ancell # 504-820); test: binding ELISA, CD40-Fc coated, one fixed concentration (100 ng/ml), anti-human IgG Fc-HRP
Procedure: as §1, §2

CD40-Fc (R&D #1493-CD) = biological target: T4, CD40-Fc (R&D #1493-CD) (human, UniProt P25942 21-193); test: SPR (Biacore 3000), CD40-Fc immobilised, control antibody injected
T4 construct: Bought reagent immobilised on the Biacore chip; also called human CD40; not shown: Fc part of the bought fusion
T4 sequence (P25942 21-193 limits assumed): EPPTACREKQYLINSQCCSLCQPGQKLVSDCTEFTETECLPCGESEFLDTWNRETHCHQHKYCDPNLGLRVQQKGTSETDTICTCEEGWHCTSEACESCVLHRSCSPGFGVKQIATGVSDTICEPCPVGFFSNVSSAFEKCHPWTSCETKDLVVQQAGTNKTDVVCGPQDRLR
Procedure: CD40-Fc (R&D #1493-CD) was immobilized to the BIAcore sensorship, CMS, using conventional amine coupling. 0.5 uM Bispecific construct (957/530) was injected over immobilized CD40 for 3 minutes and the dissociation was followed for 3 minutes. 2.17 uM CTLA4-Fc (Orencia, Bristol-Mayers Squibb) was injected over the CD40-Bispecific complex for 3 minutes and the dissociation phase was followed for 3 minutes. The chip was finally regenerated using 10 mM Glycine, pH 1.7. A Biacore 3000 instrument was used according to the manufacturer's protocols.

[7] = biological target: T2, human CTLA4-Fc (Fitzgerald #30R-CD152); test: binding ELISA, CTLA4-Fc coated, sample titrated, anti-human IgG Fc-HRP, chemiluminescence
Procedure: as §3, with “The plates were washed again and sample or controls (serially diluted 1/3 from 50 000-0001 nM) were added to the wells.” left out, “Fcγ-HRP” for “Fγy-HRP”, “with” for “with an”

[8] = biological target: T5, CTLA4-Fc (Orencia, Bristol-Mayers Squibb) (human, UniProt P16410 38-152); test: dual ELISA: CD40-Fc coated, antibody at 0.2 ug/ml captured, biotinylated CTLA4-Fc titrated, streptavidin-HRP
T5 construct: Commercial drug Orencia; Biotinylated in the dual ELISA; also called soluble CTLA-4; human CTLA-4; not shown: Fc part of Orencia
T5 sequence (P16410 38-152 limits assumed): as the sequence (P16410 38-152 limits assumed) above
Procedure: In short, 96-well flat bottom plate high binding plates (Greiner #655074) were coated with CD40-Fc (Ancell # 504-820) by incubating overnight at 4° C. The plates were washed (Wash buffer: PBS+0.05% Tween 20 (PBST) Medicago #09-9410-100) and then blocked in PBST+3% BSA (Merck, #1.12018.0100). […] The samples were incubated for 1 h at room temperature and then washed.

[9] = biological target: T1, CD40-Fc (Ancell # 504-820); test: binding ELISA, CD40-Fc coated, sample titrated, anti-human IgG Fc-HRP, chemiluminescence
Procedure: as §1, §2

T1 sequence (P25942 21-193 limits assumed): as the sequence (P25942 21-193 limits assumed) above

B1: isolated polypeptide of amino acid sequence SEQ ID NO: 8 (soluble CTLA-4 binding domain reference 904) (ligand)
chain: LKIQAYFNETADLPCQFANSQNQSLSELIVFWQDQENLVLNEVYLGKERFDAVDSKYMGRTSFDSDSWTLRLHNLQIKDKGIYQCIIHHKKPSGMVKIHQMDSELSVLA
notes: Control in the CD40 ELISA
[1]
  binding result: no binding (tested: 100 ng/ml (not on the sheet))

B2: wild type human CD86 soluble extracellular domain (control in Examples 2 and 4) (ligand)
chain: APLKIQAYFNETADLPCQFANSQNQSLSELVVFWQDQENLVLNEVYLGKEKFDSVHSKYMGRTSFDSDSWTLRLHNLQIKDKGLYQCIIHHKKPTGMIRIHQMNSELSVLA
notes: probably the same Fc fusion as the clones; also called wild-type protein CD86; wild type CD86; not shown: the clones it is compared with were gamma2/gamma4 Fc fusions and detection was by anti
[2]
  EC50 (read off the curve): ~0.5 µg/mL

B3: CD86 mutant clone 1038, gamma2/gamma4 fusion (Fc fusion)
chain: B2 chain with Q25L, H56D, L84I, I98V, R99K, Q102E
notes: Expressed as gamma2/gamma4 fusion, protein A purified; not shown: gamma2/gamma4 Fc
[3]
  binding result: no binding
[4]
  EC50 (read off the curve): ~0.1 µg/mL

B4: CD86 mutant clone 1044, gamma2/gamma4 fusion (Fc fusion)
chain: B2 chain with Q25L, S26T, H56S, L84I, R99K, Q102E, N104S
notes: as for B3
[3]
  binding result: no binding
[5]
  EC50 (read off the curve): ~0.03 µg/mL

B5: CD86 mutant clone 1043, gamma2/gamma4 fusion (Fc fusion)
chain: B2 chain with Q25L, H56D, L84I, R99K, Q102E
notes: as for B3
[3]
  binding result: no binding
[5]
  EC50 (read off the curve): ~0.04 µg/mL

B6: CD86 mutant clone 1045, gamma2/gamma4 fusion (Fc fusion)
chain: B2 chain with Q25L, S26T, H56D, M97L, I98V, R99K, Q102E
notes: as for B3
[3]
  binding result: no binding
[5]
  EC50 (read off the curve): ~0.05 µg/mL

B7: CD86 mutant clone 1039, gamma2/gamma4 fusion (Fc fusion)
chain: B2 chain with Q25L, H56S, L84I, T95S, I98V, R99K, N104D
notes: as for B3
[3]
  binding result: no binding
[4]
  EC50 (read off the curve): ~0.04 µg/mL

B8: CD86 mutant clone 1041, gamma2/gamma4 fusion (Fc fusion)
chain: B2 chain with F9L, Q25L, H56D, L84I, M97L, I98V, R99K, Q102E
notes: as for B3
[3]
  binding result: no binding
[4]
  EC50 (read off the curve): ~0.09 µg/mL

B9: CD86 mutant clone 1047, gamma2/gamma4 fusion (Fc fusion)
chain: B2 chain with Q25L, H56D, L84I, M97L, I98V, R99K, Q102E
notes: as for B3
[3]
  binding result: no binding

B10: CD86 H79A mutant (Peach et al) control clone (ligand)
chain: B2 chain with H56A
notes: also called Prior Art; not shown: probably the same gamma2/gamma4 Fc fusion
[2]
  EC50 (read off the curve): ~0.8 µg/mL

B11: CD86 mutant clone 1046, gamma2/gamma4 fusion (Fc fusion)
chain: B2 chain with H56D, K80E, L84I, T95S, I98V, R99K, N104D
notes: as for B3
[3]
  binding result: no binding
[5]
  EC50 (read off the curve): ~0.02 µg/mL

B12: Bispecific polypeptide 959/530 (bispecific antibody, human IgG1, kappa)
light: LKIQAYFNETADLPCQFANSQNQSLSELIVFWQDQENLVLNEVYLGKERFDAVDSKYMGRTSFDSDSWTLRLHNLQIKDKGIYQCIIHHKKPSGMVKIHQMDSELSVLAKRTVAQSVLTQPPSASGTPGQRVTISCSGSSSNIGSNTVNWYQQLPGTAPKLLIYRNNQRPSGVPDRFSGSKSGTSASLAISGLRSEDEADYYCAAWDDSLSGWRFGGGTKLTVLGGTVAAPSVFIFPPSDEQLKSGTASVVCLLNNFYPREAKVQWKVDNALQSGNSQESVTEQDSKDSTYSLSSTLTLSKADYEKHKVYACEVTHQGLSSPVTKSFNRGEC
heavy: not shown
[6]
  binding result: binds

B13: Bispecific polypeptide 960/530 (bispecific antibody, human IgG1, kappa)
light: B12 light with K110N, R111F, T112S, V113Q, A114P
heavy: not shown
[6]
  binding result: binds

B14: Bispecific polypeptide 958/531 (bispecific antibody, human IgG1, kappa)
heavy: not shown
light: QSVLTQPPSASGTPGQRVTISCSGSSSNIGSNTVNWYQQLPGTAPKLLIYRNNQRPSGVPDRFSGSKSGTSASLAISGLRSEDEADYYCAAWDDSLSGWRFGGGTKLTVLGGTVAAPSVFIFPPSDEQLKSGTASVVCLLNNFYPREAKVQWKVDNALQSGNSQESVTEQDSKDSTYSLSSTLTLSKADYEKHKVYACEVTHQGLSSPVTKSFNRGEC
[6]
  binding result: binds

B15: Antibody A2-54 (monospecific anti-CD40) (antibody, human IgG1, kappa, V domains shown)
VH: EVQLLESGGGLVQPGGSLRLSCAASGFTFSDYYMSWVRQAPGKGLEWISSISSNGIYIYYADSLKGRFTISRDNSKNTLYLQMNSLRAEDTAVYYCARAPVDYSNPSGMDVWGQGTLVTVSS
VL: not shown
notes: VH-gamma1 / VL-kappa; also called control Ab
CD40-Fc (R&D #1493-CD)
  binding result: binds
[7]
  binding result: no binding (tested: log 1.2 µg/mL (about 16 µg/mL))
[8]
  binding result: no binding (tested: 20 µg/mL of hCTLA-4-bio)

B16: Bispecific polypeptide 957/530 (bispecific antibody, human IgG1, kappa)
light: QSVLTQPPSASGTPGQRVTISCSGSSSNIGSNTVNWYQQLPGTAPKLLIYRNNQRPSGVPDRFSGSKSGTSASLAISGLRSEDEADYYCAAWDDSLSGWRFGGGTKLTVLGGTVAAPSVFIFPPSDEQLKSGTASVVCLLNNFYPREAKVQWKVDNALQSGNSQESVTEQDSKDSTYSLSSTLTLSKADYEKHKVYACEVTHQGLSSPVTKSFNRGECSGGGGSGGGGSAPLKIQAYFNETADLPCQFANSQNQSLSELIVFWQDQENLVLNEVYLGKERFDAVDSKYMGRTSFDSDSWTLRLHNLQIKDKGIYQCIIHHKKPSGMVKIHQMDSELSVLA
heavy: not shown
[9]
  EC50 (read off the curve): ~200 ng/mL

B17: Bispecific polypeptide 956/530 (bispecific antibody, human IgG1, kappa)
light: QSVLTQPPSASGTPGQRVTISCSGSSSNIGSNTVNWYQQLPGTAPKLLIYRNNQRPSGVPDRFSGSKSGTSASLAISGLRSEDEADYYCAAWDDSLSGWRFGGGTKLTVLGGTVAAPSVFIFPPSDEQLKSGTASVVCLLNNFYPREAKVQWKVDNALQSGNSQESVTEQDSKDSTYSLSSTLTLSKADYEKHKVYACEVTHQGLSSPVTKSFNRGECSGGGGSGGGGSLKIQAYFNETADLPCQFANSQNQSLSELIVFWQDQENLVLNEVYLGKERFDAVDSKYMGRTSFDSDSWTLRLHNLQIKDKGIYQCIIHHKKPSGMVKIHQMDSELSVLA
heavy: not shown
[9]
  binding result: binds

From patent US20170304437A1 (ALLIGATOR BIOSCIENCE, published 2017)
